Reference: paper PMC2700736
Numbering of substitutions follows the chain as printed. Read-outs that look alike come from different tables or passages of the source.

T1: I-SceI wild-type (UniProt P03882 1-235)
T1 sequence: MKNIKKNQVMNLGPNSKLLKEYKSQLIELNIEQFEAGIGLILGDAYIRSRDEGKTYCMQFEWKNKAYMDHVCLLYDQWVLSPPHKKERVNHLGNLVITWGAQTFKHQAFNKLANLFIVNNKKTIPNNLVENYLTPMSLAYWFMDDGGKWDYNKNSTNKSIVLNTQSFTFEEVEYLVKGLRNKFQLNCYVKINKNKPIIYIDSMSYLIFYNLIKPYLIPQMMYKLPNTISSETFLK

T2: I-SceI K122I (UniProt P03882 1-235, K122I)
T2 sequence: T1 sequence with K122I

T3: I-SceI K223I (UniProt P03882 1-235, K223I)
T3 sequence: T1 sequence with K223I

B1: Nicked bottom DNA strand substrate (structured_DNA)
DNA 1: GGTGAAACACTCGAACGCTAGGGATAACAGGGTAATATAGCCAATCCAATGATTGGCTATATTACCCTGTTAT
DNA 2: CCCTAGCGTTCGAGTGTTTCA
modifications: nick at bottom-strand cleavage site; 5' phosphate at nick (21-mer)
B2: Duplex linear product (upstream cleavage product) (dsDNA)
DNA 1: GGTGAAACACTCGAACGCTAGGGATAA
DNA 2: CCCTAGCGTTCGAGTGTTTCA
B3: 94-mer intact hairpin substrate (structured_DNA)
DNA: GGTGAAACACTCGAACGCTAGGGATAACAGGGTAATATAGCCAATCCAATGATTGGCTATATTACCCTGTTATCCCTAGCGTTCGAGTGTTTCA
B4: Nicked top DNA strand substrate (structured_DNA)
DNA 1: GGTGAAACACTCGAACGCTAGGGATAA
DNA 2: CAGGGTAATATAGCCAATCCAATGATTGGCTATATTACCCTGTTATCCCTAGCGTTCGAGTGTTTCA
modifications: nick at top-strand cleavage site; 5' phosphate at nick (67-mer)

Key:
Assay in all cases: filter binding
[1] = molecular target: T1, I-SceI wild-type
[2] = molecular target: T1, I-SceI wild-type; remark: listed apart in the source
[3] = molecular target: T2, I-SceI K122I
[4] = molecular target: T3, I-SceI K223I
[5] = molecular target: T2, I-SceI K122I; remark: listed apart in the source
[6] = molecular target: T3, I-SceI K223I; remark: listed apart in the source

| Binder | Kd [1] | Kd [2] | Kd [3] | Kd [4] | Kd [5] | Kd [6] |
| --- | --- | --- | --- | --- | --- | --- |
| B1 | 13.2 ± 2.1 nM | 3.2 ± 0.2 nM |  |  |  |  |
| CAGGGTAATATAGCCAATCCAATGATTGGCTATATTACCCTGTTAT (structured_DNA) [Hairpin product 46-mer (downstream cleavage product)] |  | 3.3 ± 0.6 nM |  |  |  |  |
| B2 |  | 175 ± 48 nM |  |  |  |  |
| B3 | 14.5 ± 5.7 nM | 2.3 ± 0.4 nM | 17.3 ± 0.4 nM | 15.4 ± 0.3 nM | 7.3 ± 0.4 nM | 7.4 ± 1.3 nM |
| B4 | 19.4 ± 0.7 nM | 4.2 ± 1.1 nM |  |  |  |  |
